Results taken from US20190315839A1.

Legend:
Assay in all cases: binding ELISA; OD450 on mutant D2VLP divided by OD450 on original pacD2VLP x100
[1] = molecular target: E311R mutant DENV-2 VLP (Dengue virus serotype 2, strain 16681) (UniProt P29990)
[2] = molecular target: K310E mutant DENV-2 VLP (Dengue virus serotype 2, strain 16681) (UniProt P29990)
[3] = molecular target: W101G mutant DENV-2 VLP (Dengue virus serotype 2, strain 16681) (UniProt P29990)

4G2 (antibody)
Relative binding (%) [1]: 99.4%
Relative binding (%) [2]: 110%
Relative binding (%) [3]: 9%
